Test results: article PMC8246471

Biological target: PriA helicase (UniProt P17888 1-732)
Assay: ATPase DNA titration

PriA helicase, sequence (P17888 whole entry): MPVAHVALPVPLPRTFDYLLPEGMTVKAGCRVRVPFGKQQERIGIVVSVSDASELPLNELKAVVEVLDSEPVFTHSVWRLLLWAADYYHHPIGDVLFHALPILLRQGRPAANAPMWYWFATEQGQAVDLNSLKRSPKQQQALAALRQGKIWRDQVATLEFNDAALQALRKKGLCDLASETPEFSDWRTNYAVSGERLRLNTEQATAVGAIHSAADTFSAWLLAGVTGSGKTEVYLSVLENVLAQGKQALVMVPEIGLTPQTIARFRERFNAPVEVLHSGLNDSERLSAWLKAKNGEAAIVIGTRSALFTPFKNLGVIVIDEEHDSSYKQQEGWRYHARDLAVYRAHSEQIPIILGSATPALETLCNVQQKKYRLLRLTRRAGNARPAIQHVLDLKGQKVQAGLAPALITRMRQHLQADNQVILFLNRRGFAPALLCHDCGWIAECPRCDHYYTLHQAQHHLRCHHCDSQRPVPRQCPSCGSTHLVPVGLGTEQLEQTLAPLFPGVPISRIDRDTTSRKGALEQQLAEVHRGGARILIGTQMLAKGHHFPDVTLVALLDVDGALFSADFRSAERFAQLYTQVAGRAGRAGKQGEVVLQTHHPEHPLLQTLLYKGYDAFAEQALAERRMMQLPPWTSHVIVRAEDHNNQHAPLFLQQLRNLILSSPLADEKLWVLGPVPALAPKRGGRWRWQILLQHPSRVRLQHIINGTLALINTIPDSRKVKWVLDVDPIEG

B1: Fork 1 (mixed)
DNA 1: CTAGAGACGCTGCCGAATTCTGGCTTGGATCTGATGCTGTCTAGAGGCCTCCACTATGAAATCGCTGCA
DNA 2: CCGGGCTGCAGAGCTCATAGATCGATAGTCTCTAGACAGCATCAGATCCAAGCCAGAATTCGGCAGCGTCT
- apparent K (half saturation): 5.7 ± 0.7 nM
